For experiment [1], the target named is Full-length C24A β3 mutant with a carboxyl-terminal Myc epitope tag. Briefly: atomic force microscopy (AFM) imaging; Myc-tagged β3 (wild type or C24A) immunoisolated from tsA 201 detergent extract, diluted to ~40 pM, adsorbed to mica, imaged in air in tapping mode; molecular volumes of particles.
The target of experiment [2] is mEos2-labeled acid-sensing ion channel hASIC (UniProt P78348). Briefly: fluorescence photoactivated localization microscopy (FPALM) with pair correlation analysis; mEos2 fusions on the plasma membrane of fixed, transfected HEK293 cells; TIRF-PALM; 30 regions of 1 μm^2 on five cells; proteins per cluster.

Chain of mEos2-labeled acid-sensing ion channel hASIC (from UniProt P78348 1-528) (natural protein) (P78348 whole entry): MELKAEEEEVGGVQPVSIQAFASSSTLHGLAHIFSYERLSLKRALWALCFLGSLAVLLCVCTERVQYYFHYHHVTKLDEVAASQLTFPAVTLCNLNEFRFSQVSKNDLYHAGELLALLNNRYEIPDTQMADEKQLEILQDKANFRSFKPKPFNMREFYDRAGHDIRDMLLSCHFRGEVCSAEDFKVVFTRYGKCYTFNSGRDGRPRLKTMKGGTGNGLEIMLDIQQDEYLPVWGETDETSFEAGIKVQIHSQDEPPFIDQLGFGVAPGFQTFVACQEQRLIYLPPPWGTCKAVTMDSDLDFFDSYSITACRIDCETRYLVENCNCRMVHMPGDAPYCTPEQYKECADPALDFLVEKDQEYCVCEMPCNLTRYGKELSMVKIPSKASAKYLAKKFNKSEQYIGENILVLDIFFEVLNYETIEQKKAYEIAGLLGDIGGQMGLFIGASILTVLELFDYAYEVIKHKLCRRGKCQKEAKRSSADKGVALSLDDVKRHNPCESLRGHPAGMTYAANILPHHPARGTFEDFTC

For the substance “Full-length C24A β3 mutant with a carboxyl-terminal Myc epitope tag (natural protein)”, the stoichiometry N in experiment [1] was found to be 2.

In turn, “mEos2-labeled acid-sensing ion channel hASIC (from UniProt P78348 1-528) (natural protein)” showed a stoichiometry N in experiment [2] of 3.

A word on the stoichiometry N: it is a count of units in the complex or per binding partner.

Source of the values: publication PMC4036194.
